Measured values as given in IntAct's records for PubMed 22327296.

B1: Transcription factor JunD (Homo sapiens), P17535 (parent)
chain: METPFYGDEALSGLGGGASGSGGSFASPGRLFPGAPPTAAAGSMMKKDALTLSLSEQVAAALKPAAAPPPTPLRADGAPSAAPPDGLLASPDLGLLKLASPELERLIIQSNGLVTTTPTSSQFLYPKVAASEEQEFAEGFVKALEDLHKQNQLGAGAAAAAAAAAAGGPSGTATGSAPPGELAPAAAAPEAPVYANLSSYAGGAGGAGGAATVAFAAEPVPFPPPPPPGALGPPRLAALKDEPQTVPDVPSFGESPPLSPIDMDTQERIKAERKRLRNRIAASKCRKRKLERISRLEEKVKTLKSQNTELASTASLLREQVAQLKQKVLSHVNSGCQLLPQHQVPAY

Variants of: B1
Conditions: with mk10_human MAPK10, P53779
Sequence of mk10_human MAPK10, P53779 (P53779 whole entry): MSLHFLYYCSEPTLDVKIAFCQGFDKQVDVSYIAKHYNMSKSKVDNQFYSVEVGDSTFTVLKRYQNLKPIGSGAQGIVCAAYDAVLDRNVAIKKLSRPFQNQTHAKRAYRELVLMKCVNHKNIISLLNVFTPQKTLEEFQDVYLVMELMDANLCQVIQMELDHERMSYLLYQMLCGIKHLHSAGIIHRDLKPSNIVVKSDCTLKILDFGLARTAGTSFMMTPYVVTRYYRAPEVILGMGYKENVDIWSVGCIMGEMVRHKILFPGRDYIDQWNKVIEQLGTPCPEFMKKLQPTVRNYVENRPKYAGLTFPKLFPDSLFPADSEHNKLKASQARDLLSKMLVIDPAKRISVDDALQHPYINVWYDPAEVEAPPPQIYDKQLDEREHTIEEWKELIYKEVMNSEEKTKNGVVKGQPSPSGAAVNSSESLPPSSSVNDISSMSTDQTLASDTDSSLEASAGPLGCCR

Row | effect of a mutation on the interaction | Variant
1 | disrupting interaction strength | L52A;L54A
2 | disrupting interaction strength | K46A;K47A
